B1: TPR t1 (parent)
chain: GACCAAUCUGCCCUCAGAGCUCGAGAACAUCUUCGGAUGCAGAGGAGGCAGGCUUCGGUGGCGCGAUAGCGCCAACGUCCUCAACCUCCAAUGCAUCCCACCACAUGAUGAUGCCUGAAGAGCCUUGGUUUUUUG

Variants of: B1
Assay: polymerase ribozyme fitness, log enrichment relative to wild type (log ratio); higher = more active; in vitro selection for triplet polymerase activity
How it was run: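 PCR was used to build mutant libraries for each subunit of a heterodimeric triplet polymerase ribozyme, which were then transcribed. A single in vitro selection round, in triplicate, used a frozen incubation at −7 °C and recovered extended constructs by gel excision, streptavidin beads and RT-PCR. Fitness is the logarithm of genotype enrichment relative to wild-type enrichment, averaged over replicates with inverse-variance weights. The logarithm is base 2, and after Illumina sequencing only genotypes with ≥10 input reads and ≥1 read per output were kept.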

Row | Variant | polymerase ribozyme fitness (log ratio)
1 | A29C G39A A50U G52A U112C | -5.09
2 | A29U C94A C102G U109C U130C | -6.22
3 | C28U C62U G69U | -1.04
4 | C28G C53U G93A | -5.35
5 | U33C A37C G42U G69U A111C C115A G127C U133G | -5.26
6 | A29G G60U A84C C94U U106A G120A U125G | -0.963
7 | C31U C86A | -5.09
8 | C31U G71U G120U | -4.2
9 | C31G G39U C72A U106A G120U | -6.88
10 | A29G A74U | -1.73
11 | U30C C40U G120C | -2.45
12 | U33A C72G | -5.17
13 | C28U A83C | -2.54
14 | U32C C76U A90U | -2.2
15 | C28U C73A | -2.23
16 | A29G U87A | -1.67
17 | A29C G61A A75U | -1.75
18 | A29C A41U C64U | -3.54
19 | A29U C49G C73U C76U C94A | -3.55
20 | U33A C62G C73A U78G | -5.54
21 | A29G C97A | -5.53

Row | Variant | polymerase ribozyme fitness (log ratio)
22 | U32C A119G | 0.645
23 | A29U A46U U106A | -2.03
24 | U30G A95C U96C A105U A111C G120C | -6.71
25 | A29U C79A | -3.06
26 | U33A C88U | -3.66
27 | C31U G39A G69U G120U | -3.44
28 | C28G C56A | -1.87
29 | C31U G61U A91C | -5.51
30 | A29C C102A U109G | -2.1
31 | C31U A68G | -6.34
32 | C31U G44C G69U C115U U130A | -4.82
33 | U32G C62A C102A A111G | -6.35
34 | U30C G58C | -2.83
35 | C28A G135U | -4.58
36 | A29G G61U C85A C102U | -5.28
37 | U32G C34G C64U C85A G110U | -6.37
38 | C31U A37U | -4.07
39 | C31G C94G G113A | -5.38
40 | A29G A37G C40U G61C G127U | -4.48
41 | C28G C73U C97U | -3.34
42 | A29U C99U U106A | -4.1

Row | Variant | polymerase ribozyme fitness (log ratio)
43 | A29U C62G U81C A100U C124A | -3.66
44 | C28A G93C G110A | -0.645
45 | A29G G57U G128C | -3.73
46 | C28G C34G G110A G117U | -5.7
47 | C31U G36A G61A U87A U106A | -2.2
48 | A29G G51U U55A G57U | -3.55
49 | C28U G135U | -2.44
50 | U33A A46U C97A | -6.45
51 | U30C C70U | -2.92
52 | U33C A37C | -6.92
53 | C28U U106A | -0.471
54 | A29U C88U | -1.36
55 | A29C G36U G45U | -4.64
56 | U32G C49A G63C G117A | -6.8
57 | C31G C56G A68U U81A C99G G110C | -7.68
58 | C28G G61A G113C | -5.25
59 | A29U G51C G120U | -3.96
60 | C28U G71U C82A | -3.3
61 | A29G A43C | -3.7
62 | A29G C79G | -2.5
63 | C31G G69U A111C U112A G117A | -6.69

Row | Variant | polymerase ribozyme fitness (log ratio)
64 | C31U C72A | -4.11
65 | C31U C72U | -4.57
66 | A29G C40U | -2.17
67 | C28A U54C U106C | -5.05
68 | U32G C56U U109A C124U | -6.14
69 | A29G U32C A50U C73U | -2.14
70 | U30A U112C | -2.73
71 | C28G C82G C86A | -3.55
72 | C31G U109G C114G | -6.93
73 | U32A C88G U125A | -5.98
74 | C31A A37U G60A A83C | -7.59
75 | C31G C123U | -7.18
76 | U33A C56A | -4.57
77 | U32C G39A G42A G52A C70U C88G | -3.93
78 | U30C C40U C53G C56G C62U C76A | -5.08
79 | U30C G52C | -3.38
80 | C31A C72U C123A U125G U129A U133G | -6.38
81 | C28U C34U C73G C102U G110A | -0.0797
82 | A29C G57A C62U | -3.66
83 | C28G C62G | -4.58
84 | U33A U87A U133G | -4.32

Reference: the RNAGym collection of RNA variant scans (doi:10.1073/pnas.2313332121)
